How the values were obtained:
[1] = target: human FcRn (GFP-hFcRn construct lacking the endosomal targeting domain, expressed on the plasma membrane of human 293 cells) (human) (UniProt P55899); test: flow cytometry competition against hIgG-Alexa Fluor 647 (40 µg/ml) on 293 cells expressing GFP-hFcRn, pH 5.8
[2] = target: human FcRn (GFP-hFcRn construct lacking the endosomal targeting domain, expressed on the plasma membrane of human 293 cells) (human) (UniProt P55899); test: flow cytometry competition against hIgG-Alexa Fluor 647 on 293 cells expressing GFP-hFcRn, pH 5.8

UniProt P55899, sequence (P55899 24-321): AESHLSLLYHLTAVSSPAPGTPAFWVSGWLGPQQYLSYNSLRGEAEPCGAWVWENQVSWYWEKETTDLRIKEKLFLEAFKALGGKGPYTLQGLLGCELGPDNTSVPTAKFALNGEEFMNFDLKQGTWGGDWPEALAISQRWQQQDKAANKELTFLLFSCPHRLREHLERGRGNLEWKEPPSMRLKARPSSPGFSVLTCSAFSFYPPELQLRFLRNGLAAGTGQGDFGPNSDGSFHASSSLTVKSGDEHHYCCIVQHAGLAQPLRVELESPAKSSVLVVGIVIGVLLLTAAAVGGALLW

| IC50 [1] [µM] | fold decrease of IC50 against unconjugated hIgG [2] [fold] | Substance |
| --- | --- | --- |
| 11.4 |  | human immunoglobulin G (hIgG), unconjugated (antibody) |
| 5.4 | 2 | biotinylated human immunoglobulin G (hIgG-biotin) (antibody) |

From patent US20100209424A1
